Results reported in patent US20220162304A1 (TUOJIE BIOTECH SHANGHAI, published 2022).
Positions count from the first letter of the chain named.

B1: SN8 (antibody, V domains shown)
VH: EVQLVESGGGLVQPGGSLRLSCAASGYTFSSYWIEWVRQAPGKGLEWIGEILPGGGDTNYNEIFKGRATFSADTSKNTAYLQMNSLRAEDTAVYYCTRRVPIRLDYWGQGTLVTVSS
VL: DIQLTQSPSSLSASVGDRVTITCKASQSVDYEGDSFLNWYQQKPGKAPKLLIYAASNLESGVPSRFSGSGSGTDFTLTISSLQPEDFATYYCQQSNEDPLTFGQGTKVEIKR
B2: murine hybridoma monoclonal antibody mAb015 (antibody, V domains shown)
VH: QVQLQQSGAELARPGASVKLSCKASGSSFTSYGINWVKQRTGQGLEWIGEIFPRSGNTYYNEKFEGKATLTADKSSSTAYMELRSLTSEDSAVYFCAKGDLGDFDYWGQGTTLTVSS
VL: DFLMTQTPLSLPVRLGDQASISCRSSQSIVHSDGNTYFEWYLQKPGQSPKLLIYKVSNRFSGVPDRFSGSGSGTDFTLKISRVEAEDLGVYYCFQGSHVPWTFGGGTKLEIK
notes: murine monoclonal antibody from hybridoma; also called 83B2G2
B3: murine hybridoma monoclonal antibody mAb016 (antibody, V domains shown)
VH: QVQLQQSGAELARPGASVKLSCKASGYIFTNYGIIWVKQRTGQGLEWIGDIFPGSGNTYYNENFKGKATLTADKSSSTAYMELRSLTSEDSAVYFCSRGELGDFDYWGQGTTLTVSS
VL: B2 VL with D1V, F2V, R14S, S28N, N35T, F38L, V90I
notes: murine monoclonal antibody from hybridoma; also called 83C2D4
B4: murine hybridoma monoclonal antibody mAb017 (antibody, V domains shown)
VH: QVQLQQSGAELARPGASVKLSCKASGYTFTTYGINWVKQRTGQGLEWIGEIYPRSGNIYYNEKFKGKATLTADKSSSTAYMELRSLTSEDSAVYFCARGSDYDGDFAYWGQGTLVTVSA
VL: B2 VL with F2V, R14S, S32H, F38L, K108Q
notes: murine monoclonal antibody from hybridoma; also called 86F11F6
B5: humanized antibody hAb015 (antibody, human IgG1, kappa, V domains shown)
VH: EVQLVQSGAEVKKPGSSVKVSCKASGSSFSSYGINWVKQAPGQGLEWIGEIFPRSGNTYYNEKFEGRATLTADKSTSTAYMELRSLRSEDTAVYYCAKGDLGDFDYWGQGTTVTVSS
VL: DFVMTQTPLSLPVTPGEPASISCRSSQSIVHSDGNTYFEWYLQKPGQSPKLLIYKVSNRFSGVPDRFSGSGSGTDFTLKISRVEAEDVGVYYCFQGSHVPWTFGGGTKVEIKR
B6: humanized antibody hAb017 (antibody, human IgG1, kappa, V domains shown)
VH: EVQLVQSGAEVKKPGASVKVSCKASGYTFTTYGINWVKQAPGQGLEWIGEIYPRSGNIYYNEKFKGKATLTADKSTSTAYMELRSLRSDDTAVYYCARGSDYDGDFAYWGQGTLVTVSS
VL: B5 VL with F2V, S32H, F38L, K50Q

Legend:
[1] = target: T1, human CD79B protein on the surface of DoHH2 cells (human, UniProt P40259 29-229); test: FACS on DOHH2 cells, serial antibody dilutions, FITC secondary antibody, MFI
T1 construct: whole, on cells; endogenous CD79B on a B-cell lymphoma line
T1 sequence (looked up): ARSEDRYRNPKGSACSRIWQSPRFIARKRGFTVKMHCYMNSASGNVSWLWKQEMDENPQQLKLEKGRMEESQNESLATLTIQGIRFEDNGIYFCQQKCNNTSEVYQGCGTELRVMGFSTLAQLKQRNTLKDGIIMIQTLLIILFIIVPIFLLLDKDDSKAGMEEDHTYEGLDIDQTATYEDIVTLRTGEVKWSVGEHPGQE

[2] = target: T1, human CD79B protein on the surface of …; test: FACS, hybridoma culture supernatant on DoHH2 cells
Procedure: 4) FACS screening. DoHH2 cell suspensions were centrifuged and the cells were resuspended in PBS containing 0.1% BSA and counted. The cell supernatant to be tested was added. After 60 min of incubation at room temperature, the cells were washed for three times and then anti-mouse IgG Fc-FITC secondary antibody was added. After 30 min of incubation at room temperature in the dark, the cells were washed for three times and gently resuspended in PBS containing 0.1% BSA for detection on the instrument.
(§1) 5) Identification of positive hybridoma clones. After fusion and subclone screening of mouse spleen cells, we obtained a number of specific antibodies against human CD79B antigen. Among them, 17 hybridomas with the best ELISA and FACS binding ability were used for antibody production and purification. The FACS detection results of the culture supernatant of anti-human CD79B hybridoma positive clone cells are shown in Table 2. mIgG was used as a negative control in both ELISA and FACS tests.

[3] = target: T2, human CD79B antigen (coating antigen of the ELISA, construct not stated) (human, UniProt P40259 29-159); test: ELISA, hybridoma culture supernatant on plate coated with antigen 1 µg/mL
T2 sequence (looked up): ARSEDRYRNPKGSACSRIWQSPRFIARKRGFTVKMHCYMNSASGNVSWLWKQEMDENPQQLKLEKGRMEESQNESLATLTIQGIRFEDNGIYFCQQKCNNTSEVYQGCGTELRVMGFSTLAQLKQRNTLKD
Procedure: 3) ELISA screening. Before the start of the experiment, a 96-well plate was labeled accordingly and coated with an antigen at a concentration of 1 μg/mL, 50 μl per well overnight in a refrigerator at 4° C. The next day, the antigen plate coated the day before was taken out and washed with a plate washer (washing solution: 1×PBST). After washing, the plate was blocked with 1% BSA blocking solution prepared in 1×PBST at 37° C. for 1 h. After washing the plate with 1×PBST washing solution for 3 times, 50 μl of cell supernatant to be tested were added and incubated in a 37° C. incubator for 1 h. After washing the plate with 1×PBST washing solution for 3 times, 100 μl 1:5000 diluted goat-anti-mouse secondary antibody was added and incubated in a 37° C. incubator for 0.5 h. After washing the plate, TMB chromogenic solution A and B were mixed at a 1:1 ratio and then color development was carried out. The development reaction was terminated with 1 N hydrochloric acid after 15 min. The […] at 450 nm were detected on a Spectra Max M5 multi-function plate reader.
as §1

[4] = target: T2, human CD79B antigen (coating antigen of …); test: ELISA, plate coated with antigen at 1 ug/mL, serial antibody dilutions, OD450
Procedure: 2) ELISA detection of anti-human CD79B murine monoclonal antibodies. Before the start of the experiment, a 96-well plate was labeled accordingly and coated with an antigen at a concentration of 1 μg/mL, 50 μl per well overnight in a refrigerator at 4° C. The next day, the antigen plate coated the day before was taken out and washed with a plate washer (washing solution: 1×PBST) for once. After washing, the plate was blocked with 1% BSA blocking solution prepared in 1×PBST at 37° C. for 1 h. After washing the plate with 1×PBST washing solution for 3 times, 50 μl of antibody, diluted to 100 nM (by 1:10), were added and incubated in a 37° C. incubator for 1 h. After washing the plate with ×PBST washing solution for 3 times, 100 μl 1:5000 diluted goat-anti-mouse secondary antibody was added and incubated in a 37° C. incubator for 0.5 h. After washing the plate, TMB chromogenic solution A and B were mixed at a 1:1 ratio and then color development was carried out. The development reaction was terminated with 1 N hydrochloric acid after 15 min. The […] at 450 nm were detected on a Spectra Max M5 multi-function plate reader. Among them, three anti-human CD79B murine monoclonal antibodies had the strongest ELISA binding ability, including mAb015, mAb016 and mAb017 (see FIG. 7 for specific data). Among them, hIgG1 was the negative control antibody and SN8 was the positive control antibody. SN8 is the antibody used in the antibody-conjugated drug polatuzumab vedotin developed by Roche Pharmaceuticals (for the sequence, refer to the source of the sequence: US20170362318A). At present, polatuzumab vedotin has been approved by the FDA for marketing. It can be seen from the results that in the ELISA experiment, the binding ability of the three anti-human CD79B murine monoclonal antibodies mAb015, mAb016 and mAb017 selected preferably by the present disclosure was similar to that of SN8.

[5] = target: T1, human CD79B protein on the surface of …; test: FACS on DOHH2 cells, serial antibody dilutions, anti-mouse IgG Fc-FITC secondary antibody, MFI
Procedure: 3) FACS detection of anti-human CD79B murine monoclonal antibodies. After centrifugation of the DOHH2 cell suspension, the cells were resuspended in PBS containing 0.1% BSA and counted. 100 μl of antibody diluted to 100 nM (by 1:10) was added and incubated for 1 h at room temperature. After washing the cells for three times, anti-mouse IgG Fc-FITC secondary antibody was added. After 30 min of incubation at room temperature in the dark, the cells were washed for three times and gently resuspended in PBS containing 0.1% BSA for testing on an instrument. Among them, three anti-human CD79B murine monoclonal antibodies had the strongest FACS binding ability, including mAb015, mAb016 and mAb017 (see FIG. 8 for specific data). Among them, hIgG1 was the negative control antibody and SN8 was the positive control antibody. It can be known from the results that in the FACS experiment, the binding ability of the three anti-human CD79B murine monoclonal antibodies mAb015, mAb016 and mAb017 selected preferably by the present disclosure was better than that of SN8.

[6] = target: T3, fusion protein of human CD79B extracellular domain (ECD) and His tag (human CD79B ECD-His) (human, UniProt P40259 29-159); test: SPR (Biacore 8K; by Example 2 human CD79B-His immobilised on CM5 chip, antibody flowed over)
T3 construct: also called human CD79B-His; Human CD79B-His protein
T3 sequence: T2 sequence (looked up)

| Binder | EC50 (read off the curve) [1] [µg/mL] | Mean fluorescence values [2] [mean fluorescence] | OD450 [3] [OD450] | EC50 (read off the curve) [4] [pM] | EC50 (read off the curve) [5] [µg/mL] | Kd [6] [pM] |
| --- | --- | --- | --- | --- | --- | --- |
| B1 | ~0.09 |  |  |  |  |  |
| B2 |  | 10000 | 3.41 | ~100 | ~0.02 |  |
| B3 |  | 9990 | 3.46 | ~100 | ~0.02 |  |
| B4 |  | 8130 | 3.8 | ~100 | ~0.02 |  |
| B5 |  |  |  |  |  | 430 |
| B6 |  |  |  |  |  | 3770 |
